From patent publication US20190359687A1 (Bayer, published 2019)
Values belong to the binder of their own block, whether it stands above or below them.

Columns and labels:
[1] = biological target: T1, human glycophorin A on human red blood cells (human, UniProt P02724 20-150); assay: partition to human RBC, human HemA plasma, 1 min
T1 construct: whole, on cells; also called human GPA; huGPA
T1 sequence (looked up): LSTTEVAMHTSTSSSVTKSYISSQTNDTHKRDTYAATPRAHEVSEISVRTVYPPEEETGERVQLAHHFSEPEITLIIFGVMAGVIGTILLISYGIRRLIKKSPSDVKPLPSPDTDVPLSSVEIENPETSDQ
Protocol: (§1) The supernatant containing plasma, platelets and white blood cells was discarded and the red blood cell pellet was resuspended in 10 pellet volumes of PBS (50 mM Phosphate buffer, pH7.4, 150 mM NaCl). The red blood cells were then pelleted by slow speed centrifugation and the red blood cells re-suspended in 10 volumes of PBS. This washing step was repeated 4 more times and the red blood cells finally resuspended in a volume of plasma from Hemophilia patients with less than 1% of normal levels of FVIII (GeorgeKing Bio-Medical, Overland Park, Kans.) to generate a total volume equal to the initial blood volume such that the RBC density was equal to that of normal whole blood. BDD and RBC targeted FVIII molecules were then spiked into RBC suspension in HemA plasma at 1 IU/mL, and incubated at room temperature for 2-3 hours with gentle rotation. […] An additional control was performed in which BDD or RBC targeted FVIII molecules were added at 11U/ml into the same human hemophilia A plasma and incubated for 5 minutes and 180 mins. These samples were used to determine the input FVIII activity in the presence of plasma which was used to calculate the percentage of the molecule that was bound to RBC. All plasma samples were then assayed together for FVIII activity using the Coatest SP assay (DiaPharma, Columbus, Ohio). The assay was performed following the manufacturer's instructions in a 96-well plate format. […] The plate was incubated at 37° C. for 10 minutes with shaking between each reagent addition. […] The amount of FVIII activity in the plasma reflects the amount of unbound FVIII. The FVIII activity of the same molecule spiked in to Hemophilia A plasma alone (no RBC) and incubated for 5 minutes was normalized to 100%.

[2] = biological target: T1, human glycophorin A on human red blood …; assay: partition to human RBC, human HemA plasma, 5 min
[3] = biological target: T1, human glycophorin A on human red blood …; assay: partition to human RBC, human HemA plasma, 15 min
[4] = biological target: T1, human glycophorin A on human red blood …; assay: partition to human RBC, human HemA plasma, 30 min
Protocol: as §1

[5] = biological target: T1, human glycophorin A on human red blood …; assay: partition to human RBC, human HemA plasma, 60 min
Protocol: as §1

[6] = biological target: T1, human glycophorin A on human red blood …; assay: partition to human RBC, human HemA plasma, 120 min
[7] = biological target: T2, Cynomolgus monkey glycophorin A on Cynomolgus monkey red blood cells (Cynomolgus monkey); assay: partition to Cyno RBC, human HemA plasma, 1 min;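 further: FVIII fusion spiked at 1 IU/mL into RBC suspension at whole-blood density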
T2 construct: whole, on cells; also called Cyno GPA; Cyno RBC

[8] = biological target: T2, Cynomolgus monkey glycophorin A on …; assay: partition to Cyno RBC, human HemA plasma, 5 min;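 further: FVIII fusion spiked at 1 IU/mL into RBC suspension at whole-blood density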
Protocol: (§2) To evaluate partition to cynomolgus monkey or human red blood cells, whole blood was draw from Cynomolgus monkey or normal human volunteers in to anticoagulant with 4% sodium citrate (Sigma, St Louis, Mo.). The red blood cells were purified by layering the whole blood on to ficoll followed by low speed centrifugation. The supernatant containing plasma, platelets and white blood cells was discarded and the red blood cell pellet was resuspended in 10 pellet volumes of PBS (50 mM Phosphate buffer, pH7.4, 150 mM NaCl). The red blood cells were then pelleted by slow speed centrifugation and the red blood cells re-suspended in 10 volumes of PBS. This washing step was repeated 4 more times and the red blood cells finally resuspended in a volume of plasma from Hemophilia patients with less than 1% of normal levels of FVIII (GeorgeKing Bio-Medical, Overland Park, Kans.) to generate a total volume equal to the initial blood volume such that the RBC density was equal to that of normal whole blood. BDD and RBC targeted FVIII molecules were then spiked into RBC suspension in HemA plasma at 1 IU/mL, and incubated at room temperature for 2-3 hours with gentle rotation. […] An additional control was performed in which BDD or RBC targeted FVIII molecules were added at 11U/ml into the same human hemophilia A plasma and incubated for 5 minutes and 180 mins. These samples were used to determine the input FVIII activity in the presence of plasma which was used to calculate the percentage of the molecule that was bound to RBC. All plasma samples were then assayed together for FVIII activity using the Coatest SP assay (DiaPharma, Columbus, Ohio). The assay was performed following the manufacturer's instructions in a 96-well plate format. […] The plate was incubated at 37° C. for 10 minutes with shaking between each reagent addition.

[9] = biological target: T2, Cynomolgus monkey glycophorin A on …; assay: partition to Cyno RBC, human HemA plasma, 15 min;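 further: FVIII fusion spiked at 1 IU/mL into RBC suspension at whole-blood density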
Protocol: as §2

[10] = biological target: T2, Cynomolgus monkey glycophorin A on …; assay: partition to Cyno RBC, human HemA plasma, 30 min;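 further: FVIII fusion spiked at 1 IU/mL into RBC suspension at whole-blood density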
[11] = biological target: T2, Cynomolgus monkey glycophorin A on …; assay: partition to Cyno RBC, human HemA plasma, 60 min;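 further: FVIII fusion spiked at 1 IU/mL into RBC suspension at whole-blood density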
Protocol: as §2

[12] = biological target: T2, Cynomolgus monkey glycophorin A on …; assay: partition to Cyno RBC, human HemA plasma, 120 min;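 further: FVIII fusion spiked at 1 IU/mL into RBC suspension at whole-blood density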
[13] = biological target: T1, human glycophorin A on human red blood …; assay: partition to human RBC, human HemA plasma, 120 min; remark: listed apart in the source
Protocol: as §1

[14] = biological target: T1, human glycophorin A on human red blood …; assay: partition to human RBC, vWF deficient plasma, 1 min
[15] = biological target: T1, human glycophorin A on human red blood …; assay: partition to human RBC, vWF deficient plasma, 5 min
[16] = biological target: T1, human glycophorin A on human red blood …; assay: partition to human RBC, vWF deficient plasma, 15 min
[17] = biological target: T1, human glycophorin A on human red blood …; assay: partition to human RBC, vWF deficient plasma, 30 min
[18] = biological target: T1, human glycophorin A on human red blood …; assay: partition to human RBC, vWF deficient plasma, 60 min
[19] = biological target: T1, human glycophorin A on human red blood …; assay: partition to human RBC, vWF deficient plasma, 120 min
[20] = biological target: T3, glycophorin A peptide GP5 (human, biotin at the N-terminus); assay: Octet, GP5 peptide on the probe, fusion protein in solution, 1:1 fit
T3 construct: Residues 42 to 61 of the human glycophorin A extracellular domain
T3 peptide: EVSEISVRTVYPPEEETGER

- percentage bound to human RBC [1]: 0%
- percentage bound to human RBC [2]: 2%
- percentage bound to human RBC [3]: 4%
- percentage bound to human RBC [4]: 0%
- percentage bound to human RBC [5]: 2%
- percentage bound to human RBC [6]: 0%
B1: B-domain deleted FVIII (other, human, UniProt P00451 20-2351, looked up)
chain: ATRRYYLGAVELSWDYMQSDLGELPVDARFPPRVPKSFPFNTSVVYKKTLFVEFTDHLFNIAKPRPPWMGLLGPTIQAEVYDTVVITLKNMASHPVSLHAVGVSYWKASEGAEYDDQTSQREKEDDKVFPGGSHTYVWQVLKENGPMASDPLCLTYSYLSHVDLVKDLNSGLIGALLVCREGSLAKEKTQTLHKFILLFAVFDEGKSWHSETKNSLMQDRDAASARAWPKMHTVNGYVNRSLPGLIGCHRKSVYWHVIGMGTTPEVHSIFLEGHTFLVRNHRQASLEISPITFLTAQTLLMDLGQFLLFCHISSHQHDGMEAYVKVDSCPEEPQLRMKNNEEAEDYDDDLTDSEMDVVRFDDDNSPSFIQIRSVAKKHPKTWVHYIAAEEEDWDYAPLVLAPDDRSYKSQYLNNGPQRIGRKYKKVRFMAYTDETFKTREAIQHESGILGPLLYGEVGDTLLIIFKNQASRPYNIYPHGITDVRPLYSRRLPKGVKHLKDFPILPGEIFKYKWTVTVEDGPTKSDPRCLTRYYSSFVNMERDLASGLIGPLLICYKESVDQRGNQIMSDKRNVILFSVFDENRSWYLTENIQRFLPNPAGVQLEDPEFQASNIMHSINGYVFDSLQLSVCLHEVAYWYILSIGAQTDFLSVFFSGYTFKHKMVYEDTLTLFPFSGETVFMSMENPGLWILGCHNSDFRNRGMTALLKVSSCDKNTGDYYEDSYEDISAYLLSKNNAIEPRSFSQNPPVLKRHQREITRTTLQSDQEEIDYDDTISVEMKKEDFDIYDEDENQSPRSFQKKTRHYFIAAVERLWDYGMSSSPHVLRNRAQSGSVPQFKKVVFQEFTDGSFTQPLYRGELNEHLGLLGPYIRAEVEDNIMVTFRNQASRPYSFYSSLISYEEDQRQGAEPRKNFVKPNETKTYFWKVQHHMAPTKDEFDCKAWAYFSDVDLEKDVHSGLIGPLLVCHTNTLNPAHGRQVTVQEFALFFTIFDETKSWYFTENMERNCRAPCNIQMEDPTFKENYRFHAINGYIMDTLPGLVMAQDQRIRWYLLSMGSNENIHSIHFSGHVFTVRKKEEYKMALYNLYPGVFETVEMLPSKAGIWRVECLIGEHLHAGMSTLFLVYSNKCQTPLGMASGHIRDFQITASGQYGQWAPKLARLHYSGSINAWSTKEPFSWIKVDLLAPMIIHGIKTQGARQKFSSLYISQFIIMYSLDGKKWQTYRGNSTGTLMVFFGNVDSSGIKHNIFNPPIIARYIRLHPTHYSIRSTLRMELMGCDLNSCSMPLGMESKAISDAQITASSYFTNMFATWSPSKARLHLQGRSNAWRPQVNNPKEWLQVDFQKTMKVTGVTTQGVKSLLTSMYVKEFLISSSQDGHQWTLFFQNGKVKVFQGNQDSFTPVVNSLDPPLLTRYLRIHPQSWVHQIALRMEVLGCEAQDLY
notes: Untargeted control without scFv; also called BDD-FVIII; BDD

- % bound to Cyno RBC [7]: 17.4%
- % bound to Cyno RBC [8]: 53%
- % bound to Cyno RBC [9]: 65.7%
- % bound to Cyno RBC [10]: 73%
- % bound to Cyno RBC [11]: 78.5%
- % bound to Cyno RBC [12]: 79%
- percentage bound to human RBC [13]: 76.4%
- percentage bound to human RBC [14]: 45.9%
- percentage bound to human RBC [15]: 69.5%
- percentage bound to human RBC [16]: 78%
- percentage bound to human RBC [17]: 79.4%
- percentage bound to human RBC [18]: 78.8%
- percentage bound to human RBC [19]: 79.6%
- Kd [20]: 4.89 nM
- koff [20]: 0.0027 s⁻¹
- kon [20]: 525000 M⁻¹ s⁻¹
B2: TPP-8743 FVIII-scFv fusion protein (other)
chain: ATRRYYLGAVELSWDYMQSDLGELPVDARFPPRVPKSFPFNTSVVYKKTLFVEFTDHLFNIAKPRPPWMGLLGPTIQAEVYDTVVITLKNMASHPVSLHAVGVSYWKASEGAEYDDQTSQREKEDDKVFPGGSHTYVWQVLKENGPMASDPLCLTYSYLSHVDLVKDLNSGLIGALLVCREGSLAKEKTQTLHKFILLFAVFDEGKSWHSETKNSLMQDRDAASARAWPKMHTVNGYVNRSLPGLIGCHRKSVYWHVIGMGTTPEVHSIFLEGHTFLVRNHRQASLEISPITFLTAQTLLMDLGQFLLFCHISSHQHDGMEAYVKVDSCPEEPQLRMKNNEEAEDYDDDLTDSEMDVVRFDDDNSPSFIQIRSVAKKHPKTWVHYIAAEEEDWDYAPLVLAPDDRSYKSQYLNNGPQRIGRKYKKVRFMAYTDETFKTREAIQHESGILGPLLYGEVGDTLLIIFKNQASRPYNIYPHGITDVRPLYSRRLPKGVKHLKDFPILPGEIFKYKWTVTVEDGPTKSDPRCLTRYYSSFVNMERDLASGLIGPLLICYKESVDQRGNQIMSDKRNVILFSVFDENRSWYLTENIQRFLPNPAGVQLEDPEFQASNIMHSINGYVFDSLQLSVCLHEVAYWYILSIGAQTDFLSVFFSGYTFKHKMVYEDTLTLFPFSGETVFMSMENPGLWILGCHNSDFRNRGMTALLKVSSCDKNTGDYYEDSYEDISAYLLSKNNAIEPRSFSQNGGGGSTGGTGGSSGGGTGSGGGGTGGSGGTDIQLTQSPSFLSASVGDRVTITCRASSSVRYIYWFQQKPGKAPKLLIYATSFRQSGVPSRFSGSGSGTEYTLTISSLQPEDFATYYCHQRNSFPYTFGQGTKLEIKGGGGSGGGGSGGGGSGGGGSEVQLVQSGAEVKKPGASVKVSCKASGYTFTTYAIHWVRQAPGQGLEWMGYINPSSGYTRYNPKFKGRVTMTRDKSTSTAYMELRSLRSDDTAVYYCWTGTRDYWGQGTTVTVSSGGGGSQNPPVLKRHQREITDENQSPRSFQKKTRHYFIAAVERLWDYGMSSSPHVLRNRAQSGSVPQFKKVVFQEFTDGSFTQPLYRGELNEHLGLLGPYIRAEVEDNIMVTFRNQASRPYSFYSSLISYEEDQRQGAEPRKNFVKPNETKTYFWKVQHHMAPTKDEFDCKAWAYFSDVDLEKDVHSGLIGPLLVCHTNTLNPAHGRQVTVQEFALFFTIFDETKSWYFTENMERNCRAPCNIQMEDPTFKENYRFHAINGYIMDTLPGLVMAQDQRIRWYLLSMGSNENIHSIHFSGHVFTVRKKEEYKMALYNLYPGVFETVEMLPSKAGIWRVECLIGEHLHAGMSTLFLVYSNKCQTPLGMASGHIRDFQITASGQYGQWAPKLARLHYSGSINAWSTKEPFSWIKVDLLAPMIIHGIKTQGARQKFSSLYISQFIIMYSLDGKKWQTYRGNSTGTLMVFFGNVDSSGIKHNIFNPPIIARYIRLHPTHYSIRSTLRMELMGCDLNSCSMPLGMESKAISDAQITASSYFTNMFATWSPSKARLHLQGRSNAWRPQVNNPKEWLQVDFQKTMKVTGVTTQGVKSLLTSMYVKEFLISSSQDGHQWTLFFQNGKVKVFQGNQDSFTPVVNSLDPPLLTRYLRIHPQSWVHQIALRMEVLGCEAQDLY
notes: The entry is the mature protein without signal peptide; most of the material is cut at the furin site into two chains; also called PPB 6723
